The numbers were not newly measured in PMC11316025, which cites them from elsewhere.

For the data set, the target named is KRAS (Homo sapiens) (UniProt P01116).

RASSF5, sequence (Q8WWW0 whole entry): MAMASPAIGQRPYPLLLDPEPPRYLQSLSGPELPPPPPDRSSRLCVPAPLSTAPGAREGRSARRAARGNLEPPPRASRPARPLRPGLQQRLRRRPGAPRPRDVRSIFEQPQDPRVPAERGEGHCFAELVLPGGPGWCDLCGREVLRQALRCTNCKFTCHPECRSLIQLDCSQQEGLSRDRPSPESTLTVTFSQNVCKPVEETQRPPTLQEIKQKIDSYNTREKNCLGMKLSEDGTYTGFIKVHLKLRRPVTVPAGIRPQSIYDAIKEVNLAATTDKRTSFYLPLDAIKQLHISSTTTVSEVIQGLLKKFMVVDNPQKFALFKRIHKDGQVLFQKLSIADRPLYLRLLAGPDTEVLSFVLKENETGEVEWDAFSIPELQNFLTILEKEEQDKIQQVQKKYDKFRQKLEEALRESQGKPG

One may read the Kd as a measure of binding affinity in units of concentration. On to RASSF5 (from UniProt Q8WWW0), for which the Kd is 1.7 µM.
